Data on twelve molecules can be found in patent US12077566 (dated 2024).

Sequences and labels used below:
T1: N-cadherin (UniProt P19022 160-906, limits assumed)
T1 construct: whole, on cells
T1 sequence (looked up): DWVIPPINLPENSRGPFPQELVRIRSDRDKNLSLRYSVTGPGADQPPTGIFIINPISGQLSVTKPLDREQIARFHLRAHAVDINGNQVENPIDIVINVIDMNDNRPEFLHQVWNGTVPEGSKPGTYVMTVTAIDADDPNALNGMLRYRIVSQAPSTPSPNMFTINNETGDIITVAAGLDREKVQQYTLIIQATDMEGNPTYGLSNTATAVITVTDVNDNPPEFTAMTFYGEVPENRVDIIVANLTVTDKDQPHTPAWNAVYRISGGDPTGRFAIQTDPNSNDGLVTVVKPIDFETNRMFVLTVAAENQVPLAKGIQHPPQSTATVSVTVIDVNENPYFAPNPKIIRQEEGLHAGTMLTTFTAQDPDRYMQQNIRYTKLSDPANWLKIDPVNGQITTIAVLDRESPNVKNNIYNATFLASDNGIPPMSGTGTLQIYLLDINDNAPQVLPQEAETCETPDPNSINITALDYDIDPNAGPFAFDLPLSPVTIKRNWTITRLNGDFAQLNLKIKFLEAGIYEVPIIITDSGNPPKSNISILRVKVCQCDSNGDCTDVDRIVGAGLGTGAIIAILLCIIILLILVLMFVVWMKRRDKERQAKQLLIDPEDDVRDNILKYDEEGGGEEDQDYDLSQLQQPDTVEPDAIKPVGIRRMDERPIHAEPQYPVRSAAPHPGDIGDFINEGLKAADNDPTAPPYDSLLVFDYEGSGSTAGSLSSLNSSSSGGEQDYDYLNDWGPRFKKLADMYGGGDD

B1: recombinant immunoregulatory protein of Ganoderma lucidum (rLZ-8) (other)
chain: MSDTALIFRLAWDVKKLSFDYTPNWGRGNPNNFIDTVTFPKVLTDKAYTYRVAVSGRNLGVKPSYAVESDGSQKVNFLEYNSGYGIADTNTIQVFVVDPDTNNDFIIAQWN
notes: also called Lingzhi-8
B2: rLZ-8 (L17K/D70K) (other)
chain: B1 chain with L17K, D70K
notes: Surface potential mutant of rLZ-8
B3: rLZ-8 (D70K) (other)
chain: B1 chain with D70K
notes: as for B2
B4: rLZ-8 (S18A) (other)
chain: B1 chain with S18A
notes: Alanine mutant of rLZ-8
B5: rLZ-8 (D45A) (other)
chain: B1 chain with D45A
notes: Alanine mutant of rLZ-8
B6: rLZ-8 (R9A) (other)
chain: B1 chain with R9A
notes: Alanine mutant of rLZ-8
B7: rLZ-8 (K41D/K46E/K74E) (other)
chain: B1 chain with K41D, K46E, K74E
notes: Mutant of rLZ-8
B8: rLZ-8 (K46E/K74E) (other)
chain: B1 chain with K46E, K74E
notes: Mutant of rLZ-8
B9: rLZ-8 (K16A/K41A) (other)
chain: B1 chain with K16A, K41A
notes: Alanine mutant of rLZ-8
B10: rLZ-8 (D20H) (other)
chain: B1 chain with D20H
notes: as for B2
B11: rLZ-8 (L17K) (other)
chain: B1 chain with L17K
notes: as for B2
B12: rLZ-8 (K16A/S18A/K41A/D45A) (other)
chain: B1 chain with K16A, S18A, K41A, D45A
notes: Alanine mutant of rLZ-8, made by the same fermentation and purification as rLZ-8

Substitutions are numbered along the chain they refer to. In names and notes the source's numbering stands.

One assay has as its target T1, N-cadherin. Nature of the assay: immunofluorescence co-localization on cells.
B1: the binding result is given as “no binding”.

In a further assay the target is T2, LDLR (UniProt P01130 22-860, limits assumed).
T2 construct: whole, on cells
T2 sequence (P01130 22-860 limits assumed): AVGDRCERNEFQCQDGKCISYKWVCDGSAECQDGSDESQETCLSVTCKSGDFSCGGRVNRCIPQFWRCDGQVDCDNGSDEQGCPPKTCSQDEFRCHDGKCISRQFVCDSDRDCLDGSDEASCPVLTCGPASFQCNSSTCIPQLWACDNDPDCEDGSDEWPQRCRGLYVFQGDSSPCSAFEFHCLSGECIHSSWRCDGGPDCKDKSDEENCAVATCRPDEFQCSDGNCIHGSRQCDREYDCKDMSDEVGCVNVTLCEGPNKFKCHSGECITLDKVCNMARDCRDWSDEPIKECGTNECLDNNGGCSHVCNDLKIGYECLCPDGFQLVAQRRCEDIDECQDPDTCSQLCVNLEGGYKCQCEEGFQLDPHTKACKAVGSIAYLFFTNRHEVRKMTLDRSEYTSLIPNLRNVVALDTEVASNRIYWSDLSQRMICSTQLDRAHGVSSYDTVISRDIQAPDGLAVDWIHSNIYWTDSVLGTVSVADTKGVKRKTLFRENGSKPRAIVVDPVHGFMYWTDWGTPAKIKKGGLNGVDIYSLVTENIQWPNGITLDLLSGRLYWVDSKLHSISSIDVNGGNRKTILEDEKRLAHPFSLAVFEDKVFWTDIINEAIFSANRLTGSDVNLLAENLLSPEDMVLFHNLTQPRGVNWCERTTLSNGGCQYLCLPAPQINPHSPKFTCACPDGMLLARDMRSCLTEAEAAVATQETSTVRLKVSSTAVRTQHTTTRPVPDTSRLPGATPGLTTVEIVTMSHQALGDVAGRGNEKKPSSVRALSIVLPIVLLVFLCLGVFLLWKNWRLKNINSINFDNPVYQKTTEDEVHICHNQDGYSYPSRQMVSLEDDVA
Nature of the assay: immunofluorescence co-localization on cells.
Turning to B1, the binding result was “no binding”.

In a further assay the target is T3, EGFR extracellular domain (with an amino acid sequence of 25-645) (human, UniProt P00533 25-645).
T3 construct: range 25-645; Coupled on a CM5 chip; also called epidermal growth factor receptor extracellular domain; ligand (on the chip)
Nature of the assay: SPR, Biacore T200; EGFR extracellular domain on CM5 chip.
For B2, the “fold increase of affinity against rLZ-8” value amounted to 6 times.
Still for that read-out and setting: as for B3, the figure is 2.3 times.

The target in a further assay is T3, EGFR extracellular domain (with an …). As to the kind of experiment: SPR, Biacore T200; EGFR extracellular domain on CM5 chip, rLZ-8 protein as analyte.
Molecule B4 showed a Kd of 489 nM, a koff of 0.00182 s⁻¹ and a kon of 3720 M⁻¹ s⁻¹.
B5: binding was put at a Kd of 620 nM, the koff was found to be 0.000743 s⁻¹ and the kon was found to be 1200 M⁻¹ s⁻¹.
The matching figures for B6: 8.63 nM, 0.000528 s⁻¹ and 61200 M⁻¹ s⁻¹.
The molecule B7 came in with a dissociation constant Kd of 12.2 nM, a koff of 0.000431 s⁻¹ and an on-rate (kon) of 35300 M⁻¹ s⁻¹.
For B8 the same measures were 9.35 nM, 0.000614 s⁻¹ and 65700 M⁻¹ s⁻¹.
In turn, B2 returned a Kd of 1.53 nM, a koff of 0.000329 s⁻¹ and a kon of 215000 M⁻¹ s⁻¹.
For B9 the same measures were 1240 nM, 0.000273 s⁻¹ and 220 M⁻¹ s⁻¹.
The matching figures for B10: 7.36 nM, 0.000432 s⁻¹ and 58700 M⁻¹ s⁻¹.
For the molecule B11, the affinity, expressed as Kd, was 7.49 nM; the koff came out at 7.56e-05 s⁻¹; the on-rate constant (kon) was 10100 M⁻¹ s⁻¹.
For B12 the same measures were 30600 nM, 0.00423 s⁻¹ and 139 M⁻¹ s⁻¹.
The matching figures for B3: 2.25 nM, 0.000457 s⁻¹ and 203000 M⁻¹ s⁻¹.

Another assay has the same target. As to the kind of experiment: EGFR affinity test (SPR).
On to B3, for which the “fold increase of affinity equilibrium constant against rLZ-8” value worked out at 4 times.
